In paper PMC3946335 (Small (Weinheim an der Bergstrasse, Germany), 2013):

Columns and labels:
PyMT tumors = assay: Antitumor activity, daily tumor size; type: in vivo, mouse; settings: calipers, daily for 7 days after single IV injection; n=6 mice
[1] = Number of ICT molecules per nanoparticle, from FITC absorption and emission; type: physicochemical; settings: from attached fluorescein absorption at 492 nm and known TNP concentration
4T1 cells = assay: Caspase-3/7 assay; type: cell-based, murine; settings: low MMP-14
human dermal fibroblasts = assay: Caspase-3/7 assay; type: cell-based; settings: MMP-14 negative fibroblasts
[2] = Dynamic Light Scattering, nanoparticle size; type: physicochemical; settings: nanoparticle size by DLS; PBS buffer, filtered 0.2 μm, diluted to 0.6 mM iron
[3] = r1 and r2 relaxivities by NMR; type: physicochemical; settings: relaxivity; 1 – 60 mM iron; Varian Inova 300MHz (7 Tesla) NMR
MMTV-PyMT tumors [4] = assay: In vivo T2-weighted MR imaging of tumor accumulation; parameters: species or system mouse; settings: single IV injection: ferumoxytol 0.5 mmol Fe/kg, CLIO-ICT 0.75 mmol Fe/kg, ICT 1.0 μmol/kg; up to 24 h; n=6
[5] = Iron oxide core size by TEM; type: physicochemical; settings: after functionalization
[6] = tested on: normal organs (liver, spleen, kidney, brain, bone marrow and heart); assay: Toxicity in normal organs; type: in vivo, mouse; settings: histology and caspase-3 activity
MMTV-PyMT tumors [7] = assay: Tumor histology; type: in vivo, mouse
[8] = Laser Doppler Electrophoresis, zeta potential; type: physicochemical
MMTV-PyMT tumor cells = assay: Caspase-3/7 assay; type: cell-based, murine; settings: DEVD-AMC fluorescence, triplicate samples, printed as x:1
recombinant MMP-14 = recombinant MMP-14 (Homo sapiens, UniProt P50281); type: biochemical; settings: ICT 10 mM, recombinant MMP-14 20 μg/mL, PBS buffer, 37 °C, identical conditions (2 hours); HPLC

Substance	change in tumor size (PyMT tumors)	# of ICT (ICT molecules per iron oxide nanoparticle) [1]	response to treatment (caspase assay) (4T1 cells)	cytotoxic effects (caspase assay) (human dermal fibroblasts)	D (DLS) [2] [nm]	r1 [3] [mM⁻¹ s⁻¹]	tumor enhancement on postcontrast T2-weighted MR images (MMTV-PyMT tumors [4])	iron oxide core size [5] [nm]	toxicity or cell death in normal tissues [6]	iron deposits in tumors (Prussian Blue) (MMTV-PyMT tumors [7]; 48 hours after intravenous administration)	tumor necrosis (pathologic evaluation, H&E) (MMTV-PyMT tumors [7]; MMTV-PyMT tumors)	Cy3-labeled cleaved Caspase-3 immunofluorescent staining of tumor cells (MMTV-PyMT tumors [7]; MMTV-PyMT tumors, 48 hours after administration)	Z (zeta potential) ([8]; Laser Doppler Electrophoresis, PBS buffer, filtered 0.2 μm, 0.6 mM iron)	charge of the nanoparticle ([8]; sign of zeta potential, laser Doppler electrophoresis)	caspase expression ratio relative to the PBS control (MMTV-PyMT tumor cells)	prodrug cleaved by MMP-14 (recombinant MMP-14) [%]
FITC-βAla-Cys-Arg-Ser-Cit-Gly-HPhe-Tyr-Leu-Tyr [CLIO-ICT]	overall decrease in tumor size	4.7±0.4	not responsive	did not show any significant cytotoxic effects	21±3	38.9	negative (dark) enhancement	6.5±0.7	no toxicity or cell death	Iron deposits were noted	progressive increase in the severity of tumor necrosis	significant labeling of tumor cells	+21±7 meV	positive	2.883	–
FITC-βAla-Cys-Arg-Ser-Cit-Gly-HPhe-Tyr-Leu-Tyr [ICT]	–	–	–	–	–	–	did not show any significant MR signal enhancement	–	–	–	–	–	–	–	2.994	89
